The target in data set [1] is T1, SS_01 (engineered Phi29 DNA polymerase) (bacteriophage Phi29 (engineered; …, UniProt P03680 1-575, M97K;A484E;K512Y).
T1 sequence: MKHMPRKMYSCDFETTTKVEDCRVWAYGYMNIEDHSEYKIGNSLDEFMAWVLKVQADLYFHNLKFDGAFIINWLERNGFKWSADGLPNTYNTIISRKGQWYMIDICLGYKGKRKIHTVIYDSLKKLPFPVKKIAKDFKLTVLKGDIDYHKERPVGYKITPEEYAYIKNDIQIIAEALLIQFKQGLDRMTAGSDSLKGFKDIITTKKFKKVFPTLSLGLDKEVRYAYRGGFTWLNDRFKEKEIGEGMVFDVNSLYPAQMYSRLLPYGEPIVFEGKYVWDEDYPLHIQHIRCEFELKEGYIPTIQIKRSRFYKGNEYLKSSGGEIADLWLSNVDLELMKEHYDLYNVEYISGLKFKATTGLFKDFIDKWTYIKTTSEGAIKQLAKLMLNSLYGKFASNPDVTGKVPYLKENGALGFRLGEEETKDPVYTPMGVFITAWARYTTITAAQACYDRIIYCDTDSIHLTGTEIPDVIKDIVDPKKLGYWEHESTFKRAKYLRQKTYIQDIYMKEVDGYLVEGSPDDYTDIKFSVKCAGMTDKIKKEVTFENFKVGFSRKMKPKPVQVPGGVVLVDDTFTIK
As to the kind of experiment: EMSA; 1 mM Mg2+; ITC: 1x PBS pH 7.5, 0.01% BSA, 0.05% Tween-20, with no metal, 1 mM MgCl2 or 1 mM CaCl2, 25 C, 5 uM SS_01; EMSA: 20 mM HEPES pH 7.5, 4 mM DTT, 1 mM metal chloride, 30 C 30 min, 100 nM DNA, 10 nM polymerase. Conditions: protein: recombinant; hairpin, self-primed template.

Data set [2] has as its target T1, SS_01 (engineered Phi29 DNA polymerase). Description: ITC; Ca2+; exothermic, smaller heat than Mg2+; ITC: 1x PBS pH 7.5, 0.01% BSA, 0.05% Tween-20, with no metal, 1 mM MgCl2 or 1 mM CaCl2, 25 C, 5 uM SS_01; EMSA: 20 mM HEPES pH 7.5, 4 mM DTT, 1 mM metal chloride, 30 C 30 min, 100 nM DNA, 10 nM polymerase. Conditions: protein: recombinant; single strand.
Data set [3] has the same target. Description: ITC; no Mg2+; 10 uM DNA into 5 uM protein; ITC: 1x PBS pH 7.5, 0.01% BSA, 0.05% Tween-20, with no metal, 1 mM MgCl2 or 1 mM CaCl2, 25 C, 5 uM SS_01; EMSA: 20 mM HEPES pH 7.5, 4 mM DTT, 1 mM metal chloride, 30 C 30 min, 100 nM DNA, 10 nM polymerase. Conditions: protein: recombinant; 63 bp duplex, 5' overhang 7 nt on the 70-mer template.
Data set [4] has the same target. As to the kind of experiment: ITC; 1 mM Mg2+; 10 uM DNA into 5 uM protein; ITC: 1x PBS pH 7.5, 0.01% BSA, 0.05% Tween-20, with no metal, 1 mM MgCl2 or 1 mM CaCl2, 25 C, 5 uM SS_01; EMSA: 20 mM HEPES pH 7.5, 4 mM DTT, 1 mM metal chloride, 30 C 30 min, 100 nM DNA, 10 nM polymerase. Conditions: protein: recombinant; 63 bp duplex, 5' overhang 7 nt on the 70-mer template.

Data set [5] has the same target. As to the kind of experiment: ITC; 1 mM Ca2+; ITC: 1x PBS pH 7.5, 0.01% BSA, 0.05% Tween-20, with no metal, 1 mM MgCl2 or 1 mM CaCl2, 25 C, 5 uM SS_01; EMSA: 20 mM HEPES pH 7.5, 4 mM DTT, 1 mM metal chloride, 30 C 30 min, 100 nM DNA, 10 nM polymerase. Conditions: protein: recombinant; 63 bp duplex, 5' overhang 7 nt on the 70-mer template.
Data set [6] shares this target. Description: ITC; 1 mM Mg2+ (Mg2+/Ca2+ comparison set); ITC: 1x PBS pH 7.5, 0.01% BSA, 0.05% Tween-20, with no metal, 1 mM MgCl2 or 1 mM CaCl2, 25 C, 5 uM SS_01; EMSA: 20 mM HEPES pH 7.5, 4 mM DTT, 1 mM metal chloride, 30 C 30 min, 100 nM DNA, 10 nM polymerase. The conditions noted are these: protein: recombinant; 63 bp duplex, 5' overhang 7 nt on the 70-mer template.

B1: Seq99A hairpin primed template (structured_DNA)
DNA: TTTTTGCGCTCGAGATCTCCGTAAGGAGATCTCGAGCGCGGGACTACTACTGGGATCATCATAGCCACCTCAGCTGCACGTAAGTGCAGCTGAGGTGGC
Regarding B1, the binding result in data set [1] is given as “binds”.

Take TCCTAACGAGATTAGTTTTGCTGTT (ssDNA) [unmodified oligonucleotide (non-PS)]: in data set [2], the binding result is “binds”.

B2: 63/70-mer primed template (dsDNA)
DNA 1: TACGCAGCGTACATGCTCGTGACTGGGATAACCGTGCCGTTTGCCGACTTTCGCAGCCGTCCA
DNA 2: AAACCCTTGGACGGCTGCGAAAGTCGGCAAACGGCACGGTTATCCCAGTCACGAGCATGTACGCTGCGTA
modifications: three consecutive phosphorothioates at 3' terminus of 63-mer
As for B2, the dissociation constant Kd in data set [3] was found to be 129 ± 9.46 nM; in data set [4], 243 ± 80.5 nM; in data set [5] it was 317 ± 75.2 nM; in data set [6], 239 ± 68.2 nM.

(Values after publication PMC12732654, “Thermodynamic Profiling Reveals DNA Polymerase Template Binding, Substrate Incorporation, and Exonuclease Function”.)
